Data from patent US20220073643A1 (NANJING GENSCRIPT BIOTECH, published 2022).
Substitutions are numbered along the chain they refer to. Values belong to the binder of their own block, whether it stands above or below them.

Biological target: T1, human Claudin18.2 (human)
T1 construct: also called CLDN18.2
Test: cell ELISA, Claudin18.2-expressing HEK293T cells
Procedure: To determine protein binding EC₅₀ by Cell ELISA, 96-well U-bottom microplates were pre-blocked with blocking buffer (5% MPBS, 1×PBS with 5% skim milk) overnight at 4° C. On the next day, the Claudin18.2-expressing HEK293T stable cell line was suspended at 1.5×10⁶ cells/ml in blocking buffer, added to the plate in 100 μl/well and incubated at room temperature for 1 hour.
Raw data were plotted with GraphPad Prism v6.02 software with four parameters, best-fit value program to analyze the EC₅₀.

B1: 203A6C9 (antibody, V domains shown)
VH: QVQLKQSGPGLVQPSQSLSITCTVSGFSLTRYGVHWVRQSPGKGLEWLGVIWSGGNTDYNAAFISRLNIRKDNSKSQVFFKMNSLKPNDTAIYYCARAAYFGNSFDYWGQGTTLTVSS
VL: DIVMTQSPSSLPVTAGEKVTMSCKSSQSLLNSGNQKNYLTWYQQKPGQPPKLLIYWASTRDSGVPDRFTGSGSGTDFTLTISSVQAEDLAVYYCQNNYIYPLTFGAGTKLELK
notes: mouse hybridoma mAb
- EC50: 0.916 nM

B2: 186G12H3 (antibody, V domains shown)
VH: EVMLVESGGGLVKPGGSLKLSCAASRFTLSSYAMSWVRQTPEKRLEWVATISSGGSYTYYFDSVKGRFTISRDTAKNTLNLQMSSLRSEDTAMYYCARLYYGNALDYWGQGTSVTVSS
VL: B1 VL with P12T, M21V, D61E, K109T
notes: mouse hybridoma mAb
- EC50: 2.21 nM

B3: 231C11E9 (antibody, V domains shown)
VH: EVMLVESGGGLVKPGGSLKLSCAASGFTFNNYVMCWVRQTPEKRLEWVATISSGNFYTYYPDSVKGRFTISRDNAKNTLYLQMSSLRSEDTAIYYCASLGRGNALDNWGQGTSVTVSS
VL: B1 VL with S9A, P12T, G16K, K24R, D61E, N97D, I99S, L102F, A106S, L112I
notes: mouse hybridoma mAb
- EC50: 1.91 nM

B4: 234B9D4 (antibody, V domains shown)
VH: EIQLQQSGPDLMKPGSSVKISCTASGYSFTSYYIHWVKQSHGKTLEWIGYIDPFNGGTRYNQKFEGKAALTVDKSSTTAYMHLTSLTSDDSAVYYCASLRFFTYWGQGTLVTVSA
VL: B1 VL with P12T, S22T, K36E, Y55S, W56R, D61Q, N97D, I99S
notes: mouse hybridoma mAb
- EC50: 4.78 nM

B5: 232F1E4 (antibody, V domains shown)
VH: QVQLKESGPGLVAPSQSLSITCTVSGFALTTYGVSWVRQPPGKGLEWLGVIWGDGSTHYHSALISRLSIRKDNSKSQVFLKLNSLQTDDTATYYCAKPGRGNAMDYWGQGTSVTVSS
VL: B1 VL with T5S, P12T, P49S, D61E, V84M, N97D, K109M
notes: mouse hybridoma mAb
- EC50: 0.966 nM

B6: 196A12B10 (antibody, V domains shown)
VH: QIQWVQSGPELKKPRETVKISCKASGYTFTDYSMHWVKQAPGKGLKWMGWINSETGEATYADDFRGRFALSLETSATTAFLQINSLKNEDTGTYFCARFYYGNSFASWGQGTTLTVSS
VL: B1 VL with S7F, P12T, S22T, S32G, Q48L, D61E, D76E, I99Y, Y100F
notes: mouse hybridoma mAb; also called 196Al2B10
- EC50: 1.78 nM

B7: 203A6D5 (antibody, V domains shown)
VH: B1 VH
VL: B1 VL
notes: mouse hybridoma mAb
- EC50: 1.16 nM

B8: 194A2F7 (antibody, V domains shown)
VH: QIQLVQSGPELKKPGETVKISCKASGYTFTDYLIHWVKQAPGKGLKWMGWINTETGEPTYADDFKGRFALSLETSASTACLQINNLKNEDTATYFCARIYYGNSFDYWGQGTTLTVSS
VL: B1 VL with S22T, S28N, N37S, D61E, S62T, N97A, I99R, Y100F, L102F, K109R
notes: mouse hybridoma mAb
- EC50: 2.57 nM

B10: 185F2G12 (antibody, V domains shown)
VH: QAYLQQSGAELVRSGASVKMSCKASGYTFTSYNMHWVRQTPGQGLEWIGYIYPGNGGTNYSQKFKGKASLTADTSSTTAYMQISSLTSEDSAVYFCATGRGFAYWGQGTLVTVSA
VL: DIVMTQSPSSLTVTAGEKVTLSCKSSQSLFNTGNQKNYLTWYQQKPGQPPKLLIFRASTRESGVPDRFTGSGFGTDFTLTISSVQAEDLAVYYCQNDFSYPLTFGAGTKLELK
notes: mouse hybridoma mAb
- EC50: 1.73 nM

B12: 241H10A1 (antibody, V domains shown)
VH: QVQLQQSGAELVKPGASVKLSCKASGYTFTSFGINWLRQRPEQGLEWIGWIFPGDGNSKYNENFKGKATLTTDKSSSTAYMQVTRLTSEDSAVYFCARFYYGNSFANWGQGTLVTVSA
VL: B1 VL with P12T, S58A, D61E, N97D, I99F, L102F, A106G
notes: mouse hybridoma mAb
- EC50: 1.66 nM

B13: 248E6A7 (antibody, V domains shown)
VH: QAYLQQSGAELVRSGASVKMSCRASGYTFTSHNMHWVKQTPGQGLEWIGYIYPGNGNTYYNQKFKVKATLTADTSSNTAYMQINSLTSEDSAVYFCVRDYYGNSFVYWGQGTLVTVSA
VL: DVVMTQSPSSLTEKTGEKVTMTCKSSQSLLNSGNQKNYLAWYQQKPGQPPKLLIYWASTRESGVPDRFIGSGSGTDFTLTISSLQTEDLAVYYCQNNYMYPFTFGAGTKLELK
notes: mouse hybridoma mAb
- EC50: 0.396 nM

B14: 194D3B2 (antibody, V domains shown)
VH: QAYLQQSGAELVRSGASVKMSCKASGYPFTSYNMHWVKQTPGQGLEWVGYIYPGNGGTNYNQKFRDKATLTADTSSSTAYMQISRLTSDDSAVYFCLTGRGFAYWGQGTLVTVSA
VL: B1 VL with P12I, A15P, K18R, W56R, D61E, N97D, I99S, A106I
notes: mouse hybridoma mAb
- EC50: 1.09 nM

B15: 219F9B8 (antibody, V domains shown)
VH: B10 VH with K19R, R38K, G57H, S61N, S69T, T77S
VL: B1 VL with P12T, W56R, D61E, N97D, I99S, A106V
notes: mouse hybridoma mAb
- EC50: 1.16 nM

B16: 213B10A4 (antibody, V domains shown)
VH: B10 VH with L4V, K23R, R38K, N59Y, S61N, S69T, T77S
VL: B10 VL with L21M, F30L, T32S, F55Y, F98Y
notes: mouse hybridoma mAb
- EC50: 2.33 nM

B22: 198F10B8 (antibody, V domains shown)
VH: B14 VH with K19R, P28T, T30S, V48I, R65K, Y80F, M81I, R85S, D89E
VL: B10 VL with K18R, L21M, T32S, F55Y, F73S, F98Y, A106V
notes: mouse hybridoma mAb
- EC50: 1.82 nM

B30: 226A4B5 (antibody, V domains shown)
VH: QAYLQQSGAELVRSGASVRMSCKASGFTFTSYNIHWVKQTPGQGLEWIGYIYPGSGGSNYNQKFMGKATLTADTSSSTVYMQISSLTSEDSAVYFCATGRGFAYWGQGTLVTVSA
VL: B10 VL with L21M, T32S, F55Y, F73S, F98Y, A106T
notes: mouse hybridoma mAb
- EC50: 1.59 nM

B32: 234A10F7 (antibody, V domains shown)
VH: B12 VH with V83L, N107Y
VL: B1 VL with P12T, A15T, E17Q, S58A, D61E, N97D, I99F, L102F
notes: mouse hybridoma mAb
- EC50: 0.857 nM

B33: 182D10F1 (antibody, V domains shown)
VH: B10 VH with T30S, R38K, S61N, S69T, T77S, A97L, A103T
VL: B10 VL with L21M, S22N, T32S, F55Y, F73S, F98Y, A106V
notes: mouse hybridoma mAb
- EC50: 1.65 nM

Other lines, results leading:

- EC50: 0.895 nM
B9: 267B2C5 (antibody, V domains shown)
VH: B5 VH with S19A, A28S, L82V, A96G
VL: B1 VL with P12T, P49S, D61E, N97D, A106G, K109T
notes: mouse hybridoma mAb

- EC50: 0.199 nM
B11: 250F4G4 (antibody, V domains shown)
VH: B13 VH with R23K, N57R, Y59N, V66G, N77S, N84S, V97T, V106A
VL: DIVMTQSPSSLTEKVGERVSMSCKSSQSLFNSGNQKNYLTWYQQKPGQPPKLLIYWASTRESGVPDRFTGSGSGTDFTLTISSVQAEDLAVYYCQNDYWYPFTFGAGTKLELK
notes: mouse hybridoma mAb

- EC50: 1.02 nM
B17: 257G7B9 (antibody, V domains shown)
VH: B13 VH with R23K, M34L, Y59N, V66G, N77S, N84S, V97T, V106A
VL: B11 VL with V15A, D97N, Y100F
notes: mouse hybridoma mAb

- EC50: 0.729 nM
B18: 256C3D3 (antibody, V domains shown)
VH: QAYLQQSGAELVRSGASVKMSCKASGYAFTSHNMHWVKQTPGQGLEWIGYISPGNGYTNYNQKFRGKATLTADTSSSTAYMQIGSLTSEDSAVYFCTRDYYGNSFAYWGQGTLVTVSA
VL: B11 VL with V15A, D97N, Y100F
notes: mouse hybridoma mAb

- EC50: 0.879 nM
B19: 262H9H6 (antibody, V domains shown)
VH: B18 VH with A28T, G84S, A106T
VL: B11 VL with V15A, D76E, D97N, Y100F
notes: mouse hybridoma mAb

- EC50: ~0.443 nM
B20: 259C6F7 (antibody, V domains shown)
VH: B18 VH with A28T, T30S, M34I, S52Y, Y57D, R65K, G84S, T97A, A106V
VL: B11 VL with T5I, V15A, R18K, F30L, D97A, W99R, Y100F
notes: mouse hybridoma mAb

- EC50: 57.8 nM
B21: 257F1E11 (antibody, V domains shown)
VH: B18 VH with A28T, M34I, G42R, S52Y, Y57G, R65K, G84S
VL: B11 VL with V15A, V91I
notes: mouse hybridoma mAb

- EC50: ~0.513 nM
B23: 267H5F12 (antibody, V domains shown)
VH: B18 VH with A28T, G84S, A106T
VL: B11 VL with V15A, D76E, D97N, Y100F
notes: mouse hybridoma mAb

- EC50: ~0.406 nM
B24: 258D11C4 (antibody, V domains shown)
VH: B18 VH with A28T, T30S, S52Y, Y57G, R65K, G84S
VL: B11 VL with V15A, E61Q, Y100F
notes: mouse hybridoma mAb

- EC50: ~0.413 nM
B25: 257G7F7 (antibody, V domains shown)
VH: B18 VH with A28T, M34L, S52Y, Y57N, R65K, G84S
VL: B11 VL with V15A, D97N, Y100F
notes: mouse hybridoma mAb

- EC50: 2.32 nM
B26: 259C6F4 (antibody, V domains shown)
VH: B18 VH with A28T, T30S, M34I, S52Y, Y57D, R65K, G84S, T97A, A106V
VL: B11 VL with T5I, V15A, R18K, F30L, D97A, W99R, Y100F
notes: mouse hybridoma mAb

- EC50: 0.948 nM
B27: 257B1G9 (antibody, V domains shown)
VH: B18 VH with A28T, S52Y, Y57G, R65K, G84S
VL: B11 VL with K14R, V15A, W99R
notes: mouse hybridoma mAb

- EC50: ~4410 nM
B28: 277F1F8 (antibody, V domains shown)
VH: B18 VH with A9P, A28T, S52N, Y57G, T58N, R65K, G84S, T97A, Y107F
VL: B11 VL with K14T, V15A, R18K, F30L, W99R, Y100F
notes: mouse hybridoma mAb

- EC50: 0.181 nM
B29: 273C10E5 (antibody, V domains shown)
VH: B12 VH
VL: B1 VL with P12T, S58A, D61E, T69A, N97D, I99F, L102F
notes: mouse hybridoma mAb

- EC50: 0.53 nM
B31: 252F1B10 (antibody, V domains shown)
VH: B18 VH with A28T, S52Y, Y57G, R65K, G84N
VL: B11 VL with V15A, W99R
notes: mouse hybridoma mAb

- EC50: 0.821 nM
B34: 260G9E8 (antibody, V domains shown)
VH: B18 VH with Y3D, A28T, T30A, S52Y, Y57G, N59K, R65T, G84T, T97A
VL: B11 VL with V15A, R18K, S22R, F30L, E87D, W99M, Y100F
notes: mouse hybridoma mAb
